Consider one molecule from patent US20140308685A1 (SHINO TEST, published 2014).

Test [1] concerns the target T1, periostin (S2 recombinant periostin protein tagged with V5/His) (Homo sapiens (Human), UniProt Q15063 22-836, limits assumed).
T1 construct: also called osteoblastic specific factor 2; OSF2
T1 sequence: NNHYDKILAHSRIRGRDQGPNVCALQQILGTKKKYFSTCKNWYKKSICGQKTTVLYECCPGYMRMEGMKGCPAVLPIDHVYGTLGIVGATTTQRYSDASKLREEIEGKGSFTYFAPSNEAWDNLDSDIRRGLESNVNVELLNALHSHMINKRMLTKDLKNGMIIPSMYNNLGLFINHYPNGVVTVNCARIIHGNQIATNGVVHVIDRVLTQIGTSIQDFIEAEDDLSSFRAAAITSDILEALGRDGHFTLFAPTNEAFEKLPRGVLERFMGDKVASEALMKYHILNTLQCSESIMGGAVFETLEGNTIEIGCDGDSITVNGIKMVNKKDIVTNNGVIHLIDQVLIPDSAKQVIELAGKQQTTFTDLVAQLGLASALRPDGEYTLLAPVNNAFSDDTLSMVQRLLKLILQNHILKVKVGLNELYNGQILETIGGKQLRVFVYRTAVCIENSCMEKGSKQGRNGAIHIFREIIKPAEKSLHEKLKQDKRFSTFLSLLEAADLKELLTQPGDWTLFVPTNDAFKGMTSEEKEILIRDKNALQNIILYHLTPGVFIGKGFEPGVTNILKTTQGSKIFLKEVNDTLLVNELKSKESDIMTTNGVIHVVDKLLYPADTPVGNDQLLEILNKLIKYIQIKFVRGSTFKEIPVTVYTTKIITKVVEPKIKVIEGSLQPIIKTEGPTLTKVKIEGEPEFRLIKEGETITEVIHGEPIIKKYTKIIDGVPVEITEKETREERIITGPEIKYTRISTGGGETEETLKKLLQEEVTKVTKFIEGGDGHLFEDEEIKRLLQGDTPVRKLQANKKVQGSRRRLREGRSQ
The test is described as follows: ELISA on immobilized antigen (5 ug/mL), A405; bound if difference to control well is 0.2 or more. As to the method:
(8) Subsequently, the absorbance in each well of the microtiter plate in (7) at 405 nm was measured with a spectrophotometer.
Based on the measurement results of the absorbance, if the difference between the obtained measured values of absorbance in the well immobilizing periostin or a partial-length periostin and the measured values of absorbance in the control well (into which phosphate-buffered saline was poured instead of periostin or partial-length periostins) is 0.2 or more, an anti-periostin monoclonal antibody was determined to have bound to the periostin or the partial-length periostin immobilized to the well of the microtiter plate.

For test [2], the target named is T2, partial-length periostin (R1/R2 regions) (Homo sapiens (Human), UniProt Q15063 111-378, limits assumed).
T2 sequence: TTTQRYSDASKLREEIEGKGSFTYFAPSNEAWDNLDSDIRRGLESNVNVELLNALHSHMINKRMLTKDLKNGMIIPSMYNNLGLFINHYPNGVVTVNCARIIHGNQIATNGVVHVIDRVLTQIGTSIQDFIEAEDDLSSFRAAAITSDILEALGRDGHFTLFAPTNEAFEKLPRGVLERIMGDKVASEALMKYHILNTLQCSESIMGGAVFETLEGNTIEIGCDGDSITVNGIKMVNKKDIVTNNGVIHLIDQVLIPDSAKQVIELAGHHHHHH
Briefly: ELISA on immobilized antigen, POD-labeled anti-mouse IgG, A405. (In general: In an ELISA, binding on a coated surface is turned into a signal by an enzyme label.)

The target of test [3] is T3, partial-length periostin (R4 region) (Homo sapiens (Human), UniProt Q15063 496-631, limits assumed).
T3 sequence: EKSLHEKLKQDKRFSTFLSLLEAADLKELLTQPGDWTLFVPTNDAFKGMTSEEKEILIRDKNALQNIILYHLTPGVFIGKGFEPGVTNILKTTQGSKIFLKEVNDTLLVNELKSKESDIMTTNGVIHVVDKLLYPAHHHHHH
The test is described as above.

In test [4] the target is T4, partial-length periostin (C-terminal region) (Homo sapiens (Human), UniProt Q15063 632-836, limits assumed).
T4 sequence: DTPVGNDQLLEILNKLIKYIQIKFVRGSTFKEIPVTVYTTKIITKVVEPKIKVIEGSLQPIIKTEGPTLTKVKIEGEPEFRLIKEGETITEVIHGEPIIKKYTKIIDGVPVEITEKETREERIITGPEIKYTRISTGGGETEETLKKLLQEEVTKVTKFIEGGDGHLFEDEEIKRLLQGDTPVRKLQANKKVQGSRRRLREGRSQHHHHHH
The description is as above.

The target in test [5] is T5, partial-length periostin (EMI region) (Homo sapiens (Human), UniProt Q15063 22-110, limits assumed).
T5 sequence: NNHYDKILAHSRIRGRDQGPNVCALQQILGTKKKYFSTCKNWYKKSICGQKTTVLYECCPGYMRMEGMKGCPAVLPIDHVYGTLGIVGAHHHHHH
The test is described as above.

The target of test [6] is T6, partial-length periostin (R2 region) (Homo sapiens (Human), UniProt Q15063 235-378, limits assumed).
T6 sequence: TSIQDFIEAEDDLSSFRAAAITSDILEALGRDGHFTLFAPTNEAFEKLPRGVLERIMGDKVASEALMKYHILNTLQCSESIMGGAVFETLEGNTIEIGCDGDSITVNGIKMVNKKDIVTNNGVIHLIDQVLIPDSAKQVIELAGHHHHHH
The test is described as above.

B1: anti-periostin monoclonal antibody (SS19D) (antibody, V domains shown)
VH: QVQLQQPGSELVKPGASVKLSCKASGYTFTSYWMHWVKQSPGQGLEWIGEINPSNGRTNYNEKFKTKATLTVDKSSSTAYMQLNSLTSEDSAVYYCVRGDEGFAYWGQGTLVTVSA
VL: NIVLTQSPASLAVSLGQRATISCSASESVDSYGRSFIHWFQQKPGQPPKLLIYLASYLESGVPARFSGSGSRTDFTLTIDPVEADDAATYYCHQNNEDPPTFGGGAKLEIKR
B1: the binding result in test [1] is “binds”; in test [2], “no binding”; in test [3], “no binding”; in test [4], “no binding”; in test [5], “no binding”; in test [6] it was “no binding”.
